Laboratory results from the supplement of paper PMC9170038.

System: MS2 coat protein
Experiment: apparent KD of MS2 coat protein; designed switch direction (-1 OFF switch, 1 ON switch): -1; higher = weaker reporter binding
Outline: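 Designed RNA switches with common flanks were transcribed on Illumina chips by stalled E. coli RNA polymerase and titrated with SNAP-549-labelled MS2 coat protein, from 0.7 or 1.5 nM doubling to 3 µM, in Tris-HCl pH 7.5 buffer with KCl, MgCl2, BSA, DTT, tRNA and Tween-20. Steps lasted 0.8–1.5 h (lowest) to 10–20 min (highest). Titrations ran without input, with 200 uM small-molecule ligand, or with an oligonucleotide input. Normalised cluster fluorescence was curve-fitted, and apparent KD is the per-design median over clusters.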

[1] = input ligand: microRNA oligo, concentration not stated
[2] = Eterna round: R95, input ligand: microRNA oligo, concentration not stated
[3] = Eterna round: R95, input ligand: FMN 200 uM
[4] = Eterna round: R95, input ligand: none

Sequence | apparent KD of MS2 coat protein (input ligand: FMN 200 uM) | apparent KD of MS2 coat protein [1] | apparent KD of MS2 coat protein (input ligand: none) | apparent KD of MS2 coat protein [2] | apparent KD of MS2 coat protein [3] | apparent KD of MS2 coat protein [4]
AAGGGUACUUUCAGAACGACAUGAGGAUCACCCAUGUAGACUGAGGAUAUCUACUACUAAGGACGGGAGAAGGCAGUGUAAUGU [Ex NG3 #73] (Eterna round: R96, puzzle: Exclusion NG 3) | 13.8 nM | 10 nM | 15.2 nM |  |  | 
AGAAAACGAGGAUAUACGUGCAUAUUCUCGCCCAAUGGGCAACAUGAGGAUCACCCAUGUAGAAGGCGUAAAGA [Dienoror] (puzzle: Exclusion 2) |  |  |  | 34.6 nM |  | 
GAAGAAGAGAGAAAAGAAAACAUGAGGAUCACCCAUGUGAGAAGAUGAGGGUGAUACAGGCUAUAUGCUCGUCUUAU (puzzle: Sensor v3, turn-off variant 1) |  |  |  | 28.8 nM | 247 nM | 295 nM
CCAGCGUAUGUGAGGAUAUGCUGGUCCUUGGAUCAGCAGAAGGCACAUGAGGAUCACCCAUGUGGAAACGUUGA [Mod of JL 2 - Jieux - Brourd's mod of Exclusion 4] (Eterna round: R97, puzzle: Brourd's mod of Exclusion 4) | 44.9 nM |  | 19.9 nM |  |  | 
AAAUAGUCAGGAUAUACAUGAGGAUCACCCAUGUAAACUUUUAGUUUAAUUUGAAUGUGUAGAAGGGACAUAAA [Ex3 #50] (Eterna round: R97, puzzle: Exclusion 3) | 31.4 nM |  | 29.3 nM |  |  | 
GACAAGGGAGGAUAUGCACAAGGGAUAUCUGACAUGCCGUUACAUGAGGAUCACCCAUGUAGAAGGCCCGAAUA [Didiin] (puzzle: Exclusion 2) |  |  |  | 13.3 nM |  | 
CUAAUACAUCAGGAUAUGAUAGCCUAUAGCAUAUCAGAAGGGAUGACAUGAGGAUCACCCAUGUCAAAGGGUGA [eternacac ex6r4 sub19] (Eterna round: R97, puzzle: Exclusion 6) | 396 nM |  | 444 nM |  |  | 
UUGUUAUGUGUAGGAUAUGCGUAUUAUUAUUAUGCAGAAGGACAUGAGGAUCACCCAUGUGUAUUGUUAUUAUAUAUUAUAUAU [Title] (Eterna round: R96, puzzle: Exclusion NG 1) | 32.1 nM | 16 nM | 21.9 nM |  |  | 
ACGAAAGCAAACAGGUGAAACAUGAGGAUCACCCAUGUCCUCAUUUGCUCGUCUUAUAAGCUAUGCGAAAGCAUAGC [Mat - Sensor v3 - turn-off var 1 - Eli Mod - D53] (puzzle: Sensor v3, turn-off variant 1) |  |  |  | 1270 nM | 60.4 nM | 72.4 nM
CUUGAAUAAGUGAGGAUAUACUGUUAGUAAUGAUUGUAGAAGGUACAUGAGGAUCACCCAUGUUUAUUCAUAAU [JR_BME4_Sub041] (puzzle: Brourd's mod of Exclusion 4) |  |  |  | 17.5 nM |  | 
AAUUAGCAAGCGAGAUCCCACAUGAGGAUCACCCAUGUGCUCGUCUUAUAAAAGACUGUGACGAUAGUCACGGUCAC [Mat - Sensor, turn-off var - Eli Mod - D25] (Eterna round: R97, puzzle: Sensor, turn-off variant 1) | 15.3 nM |  | 12.3 nM |  |  | 
CCGGUUGGCGCAGGAUAUACAUGAGGAUCACCCAUGUUCAUGAGGAUCACUCAUGAGUUUUUGUUGUAGAAGGGUGGCCCGGCC (Eterna round: R96, puzzle: Exclusion NG 2) | 1170 nM | 605 nM | 933 nM |  |  | 
GGAGGAAGAGAGGAUAUGGAGGAGAGGAGAAGACCAGAAGGUUCAACAUGAGGAUCACCCAUGUAUGAUCCUCA [AK-MS2ROC-r4-exclusion6-1.1] (Eterna round: R97, puzzle: Exclusion 6) | 789 nM |  | 694 nM |  |  | 
UUUUUGUCAGGAUAUGAGUAGUAGUACUAUUGUUUUAUUAUUUAGAAGGGACAUGAGGAUCACCCAUGUUUCUC [Bring Us a Shrubbery-01] (puzzle: Exclusion 4) |  |  |  | 14.4 nM |  | 
ACUCCAUAUGUGAGGAUAUGGAAAGAAAAUAAAAUCCAGAAGGCACAUGAGGAUCACCCAUGUACCGCAGGGAC [BmEX4 A.29] (Eterna round: R97, puzzle: Brourd's mod of Exclusion 4) | 17.7 nM |  | 14.5 nM |  |  | 
GCCGGCUAUGUAGGAUAUGGGCCUGAUACGGGUCUAGAAGGACAUGAGGAUCACCCAUGUAUCGUGCGCUGGUGGCUUGCCGGU [-30, -30 kcal and 19% A] (Eterna round: R96, puzzle: Exclusion NG 1) | 389 nM | 119 nM | 141 nM |  |  | 
CUAAAUCAUGUAGGAUAUGCAUAGCGAAGCUAUGCAGAAGGACAUGAGGAUCACCCAUGUUCUUCCGUCUGCGUACAGACGGAA [Mat - Exclusion NG 1 - Mod of JL - D30] (Eterna round: R96, puzzle: Exclusion NG 1) | 268 nM | 32.4 nM | 33.5 nM |  |  | 

Sequence | apparent KD of MS2 coat protein (input ligand: FMN 200 uM) | apparent KD of MS2 coat protein [1] | apparent KD of MS2 coat protein (input ligand: none) | apparent KD of MS2 coat protein [2] | apparent KD of MS2 coat protein [3] | apparent KD of MS2 coat protein [4]
GGCCUGUUAGGAUAUUAGUAGUAGUCAGAAAAGACUAUUACUGAGAAGGAACAUGAGGAUCACCCAUGUUGGCC [Mat - Exclusion 4 - Eli Mod - D39] (Eterna round: R97, puzzle: Exclusion 4) | 17.2 nM |  | 17.4 nM |  |  | 
GUACAACAUGAGGAUCACCCAUGUGAGGAUAUGCGAAUUUCAUCAAAAGAUGAAAUUUGCAGAAGGCACUGUAC [Omei Ex1 A10] (Eterna round: R97, puzzle: Exclusion 1) | 19.2 nM |  | 20.8 nM |  |  | 
AGCUGUGGCCGAGGAUAUCACGAACCAUGGAAAACCAUGGAACUCAUACAUGAGGAUCACCCAUGUGAGAAGGCGGUCUCAGCA [Eli eng2 - 019] (Eterna round: R96, puzzle: Exclusion NG 2) |  | 27 nM |  |  |  | 
CCGCUCCGUGUAGGAUAUUGGCCUGCUCUGGGUCGAGAAGGACAUGAGGAUCACCCAUGUAUGUUAUUAUCACGCGUGGCGCAU [Design 80] (Eterna round: R96, puzzle: Exclusion NG 1) | 41.8 nM | 18.9 nM | 29.3 nM |  |  | 
CCAUCGAGUGUGAGGAUAUGCUGGUCCUUGGAUCAGCAGAAGGCACAUGAGGAUCACCCAUGUGGAAACGGUGG [Mat - Exclusion 4 - JL Mod - D77] (puzzle: Brourd's mod of Exclusion 4) |  |  |  | 27.7 nM |  | 
UUCCUACAUGAGGAUCACCCAUGUCAGGAUAUCUCCUCACCGCGAAUGGGCAGUGAAUAGAGAAGGGACAGGAA [Aner] (puzzle: Exclusion 1) |  |  |  | 13.5 nM |  | 
UUAAUUUUAGGAUAUACAUGAGGAUCACCCAUGUGGCGGGCCAUGAUGGAGCGUACCAGUAGAAGGAAGAACAG [Eternabot (L2) Solution 43] (Eterna round: R97, puzzle: Exclusion 3) | 69.2 nM |  | 73.2 nM |  |  | 
AUAAGCUUUUAUAUCCUUAACAUGAGGAUCACCCAUGUUCGUCUUAUGAUGGUCUGAUCCCUGAGGAUCGGACCGUU [JL-sv1-2.04 Brourd Mod] (puzzle: Sensor v3, turn-off variant 1) |  |  |  | 76.5 nM | 31 nM | 29.9 nM
GGAUUCCAGUGAGGAUAUCCAAAUAAAAGCCAUGGAGAAGGCACAUGAGGAUCACCCAUGUAGGGCAAUAGCAGCGACCACUGC [Raqube] (Eterna round: R96, puzzle: Exclusion NG 1) | 59.4 nM | 27.6 nM | 29.3 nM |  |  | 
CGGUAGUGCUCAGGAUAUACAUGAGGAUCACCCAUGUAACUAGAAUCGGUCGUCCGAUCAGUGGUGUAGAAGGGAGGCUGGCUG [random 1, A 25%] (Eterna round: R96, puzzle: Exclusion NG 2) | 32.1 nM | 22 nM | 31.5 nM |  |  | 
CUUCUGUGAGGAUAUGUUAGUUCCCAGCAAAUCGCUGGGAGACAGAAGGCACAUGAGGAUCACCCAUGUGGGCG [Vexeanra] (Eterna round: R96, puzzle: Exclusion 4) | 612 nM | 49.8 nM | 64.7 nM |  |  | 
UAACGGGCUUCUUCGUUUACAACAUGAGGAUCACCCAUGUUCGAGGAUAUCCACUAAGCUCUUCAGGAGAAGGCGAACAUAAUG [Rizaoran] (Eterna round: R96, puzzle: Exclusion NG 3) | 37.2 nM | 15.1 nM | 14.6 nM |  |  | 
UAAAGCUUUGAGAUCCUUAACAUGAGGAUCACCCAUGUUCGUCUUAUGAUGGUCUGAUCCCUGAGGAUCGGACCGUU [Mat - Sensor v3 - turn-off var 1 - JL Mod - D5] (puzzle: Sensor v3, turn-off variant 1) |  |  |  | 26.6 nM | 269 nM | 252 nM
UUUCUUAAGUGGUCGCUUCACAUGAGGAUCACCCAUGUCGCCUCUAUGGCAUUAAAUACGAGCUUUUUGCUUGAAUU [Eternabot (L1) Solution 14] (Eterna round: R97, puzzle: Sensor, turn-off variant 1) | 312 nM |  | 385 nM |  |  | 
UUGUUAUGUGUAGGAUAUGCGUAUUAUUAUUAUGCAGAAGGACAUGAGGAUCACCCAUGUGUAUUAUUAUUAUAUAUUAUAUAU [Title] (Eterna round: R96, puzzle: Exclusion NG 1) | 41.2 nM | 20.4 nM | 22 nM |  |  | 
AGAGGACAUGAGGAUCACCCAUGUAAGGAUAUGCGGAGAGUUUGGAGAGGUCGGGUAGGCAGAAGGUACAGGAG [JR_Exclu1_Sub050] (Eterna round: R96, puzzle: Exclusion 1) | 48 nM | 41 nM | 86.4 nM |  |  | 
